Experimental data: PMC11940065, “Conformational Analyses of the AHD1-UBAN Region of TNIP1 Highlight Key Amino Acids for Interaction with Ubiquitin” (Biomolecules, 2025)
Substitutions are numbered along the chain they refer to. Names and notes keep the numbering of the source.

B1: AHD1-UBAN E444F (domain or fragment, human, UniProt Q15025 417-509, looked up)
chain: QRLNKALEEALSIQTPPSSPPTAFGSPFGAGALLRKQELVTQNELLKQQVKIFEEDFQRERSDRERMNEEKEELKKQVEKLQAQVTLSNAQLK
notes: TNIP1 (ABIN1), human, amino acids 417-509 with E444F; source: E. coli Rosetta2 (DE3), purified (IMAC, SEC)
B2: AHD1-UBAN E425Q (domain or fragment, human, UniProt Q15025 417-509, looked up)
chain: B1 chain with E9Q, F28E
notes: TNIP1 (ABIN1), human, amino acids 417-509 with E425Q; source: E. coli Rosetta2 (DE3), purified (IMAC, SEC)
B3: AHD1-UBAN E444Q (domain or fragment, human, UniProt Q15025 417-509, looked up)
chain: B1 chain with F28Q
notes: TNIP1 (ABIN1), human, amino acids 417-509 with E444Q; source: E. coli Rosetta2 (DE3), purified (IMAC, SEC)
B4: WT AHD1-UBAN (TNIP1 417-509) (domain or fragment, human, UniProt Q15025 417-509, looked up)
chain: B1 chain with F28E
notes: TNIP1 (ABIN1), human, amino acids 417-509, the contiguous AHD1 and UBAN domains with their linker; In pET-28a(+); 15N-labelled for NMR; labelled with RED-tris-NTA dye on the His tag for MST; also called wildtype; ABIN1 AHD1-UBAN; source: E. coli Rosetta2 (DE3), purified (IMAC, SEC)
B5: AHD1-UBAN E425W (domain or fragment, human, UniProt Q15025 417-509, looked up)
chain: B1 chain with E9W, F28E
notes: TNIP1 (ABIN1), human, amino acids 417-509 with E425W; source: E. coli Rosetta2 (DE3), purified (IMAC, SEC)
B6: AHD1-UBAN P436W (domain or fragment, human, UniProt Q15025 417-509, looked up)
chain: B1 chain with P20W, F28E
notes: TNIP1 (ABIN1), human, amino acids 417-509 with P436W; source: E. coli Rosetta2 (DE3), purified (IMAC, SEC)

Molecular target: T1, Methionine-1-linked triubiquitin (UniProt P0CG48 1-76; P0CG48 1-76; P0CG48 1-76)
T1 construct: ubiquitin, unit 1 of 3, joined head to tail (M1-linked) on one chain; ubiquitin, unit 2 of 3, joined head to tail (M1-linked) on one chain; ubiquitin, unit 3 of 3, joined head to tail (M1-linked) on one chain; also called M1-triUb; M1-linked triubiquitin; source: bacterial production, purified (IMAC, SEC)
Test: far-UV circular dichroism difference spectra; 1:1 molar mixture, each protein at 10 µM, 50 mM sodium phosphate pH 8.0, room temperature; compared with the mathematical average of the two separate spectra
Details: both partners purified

T1 sequence (P0CG48 1-228, one chain of several): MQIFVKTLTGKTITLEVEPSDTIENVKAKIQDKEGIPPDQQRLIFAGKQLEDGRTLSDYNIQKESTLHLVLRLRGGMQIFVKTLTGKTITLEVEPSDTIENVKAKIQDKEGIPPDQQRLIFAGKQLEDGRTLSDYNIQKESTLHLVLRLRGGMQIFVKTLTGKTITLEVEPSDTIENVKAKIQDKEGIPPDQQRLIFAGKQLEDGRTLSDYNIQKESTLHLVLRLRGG

Binder	binding result
B1	binds
B2	binds
B3	binds

Molecular target: T1, Methionine-1-linked triubiquitin
Test: MST; AHD1-UBAN labelled with RED-tris-NTA 2nd generation dye on its 6x-histidine tag; 16-step 2-fold serial dilution of M1-triUb from 40 µM to 610 pM; standard capillaries, Monolith X, MST power 40%, 23 °C; n = 2
Details: both partners purified

Binder	Kd [µM]
B4	3.85 ± 0.89
B5	7.41 ± 2.28
B6	8.38 ± 0.77
